Measured values as given in patent publication US20260217797A1 (Takeda / Millennium, published 2026).
Residue numbers refer to the chain shown, from its start.

B1: A-1 (antibody, V domains shown)
VH: EVQLVESGGGVVQPGGSLRLSCAASGFAFSTYWMHWVRQAPGKGLVWVSRINGDGSGTNYADSVKGRFTISRDNAKSTLYLQMNSLRTEDTAVYYCTRTAGRGAYDFGRFDPWGQGTLVTVSS
VL: DIVLTQTPLSLPVTPGEPASISCRSSQSLLHSNGYNYLDWYLQKAGQSPQLLVFLGSNRASGVPDRFSGSASGTDFTLKISRVEAEDVGVYYCMQALQIPITFGQGTRLEIK
B2: A-19 (antibody, V domains shown)
VH: QVQLVQSGAEVKKPGESLKISCKGSGYSFTSYWIAWVRQMPGKGLEWMGIIYPGDSDTSYSPSFQGQVTISADKSISTAYLQWSSLKASDTAMYYCARGPNKYNWFDTWGQGTLVTVSS
VL: not shown
B3: A-2 (antibody, V domains shown)
VH: EVQLVESGGGLIQPGGSLRLSCAASGFTVSSNYMSWVRQAPGKGLEWVSIIYSGGSTYYADSVKGRFTISRDNSKNTLYLQMNSLRAEDTAVYYCARAPSGEYGDPIYYWGQGTLVTVSS
VL: QSVLTQPPSASASLGASVKLTCTLSSGHSTYTIAWHQQQPEKGPRYLMKLNSDGSHSKGDGIPDRFSGSSSGAERYLTISSLQSEDEADYYCQTWGTGNHWVFGGGTKLTVL
B4: A-18 (antibody, V domains shown)
VH: EVQLLESGGGLVQPGGSLRLSCAASGFTFSRYWMHWVRQAPGKGLVWVSRINSDGSSTTYADSVKGRFTISRDNAKNTLYLQMNSLRAEDTAVYYCARELYYYDSRGAEEGEGWFDPWGQGTLVTVSS
VL: QSVLTQPPSVSGAPGQRVTISCTGISSNIGAGYDVHWYQQLPGTAPKLLIYGNSNRPSGVPDRFSASKSGTSAPLAITGLQAEDEADYYCQSSDRSLSGSVFGTGTKLTVL
B5: A-10 (antibody, V domains shown)
VH: QVQLVQSGGGVVQPGRSLRLSCAASGFTFSSYGMHWVRQAPGKGLEWVAVISYDGSNKYYTDSVKGRFTISRDNSKNTLYLQMNSLRAEDTAVYYCAKDLPREVYYDILTGYDNPYYYYGMDVWGQGTTVTVSS
VL: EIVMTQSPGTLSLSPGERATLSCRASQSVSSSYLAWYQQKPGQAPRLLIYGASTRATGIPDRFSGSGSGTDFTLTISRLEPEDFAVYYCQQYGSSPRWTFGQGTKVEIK
B6: A-16 (antibody, V domains shown)
VH: QVQLVESGGGLVQPGRSLRLSCAASGFTFDDYAMHWVRQAPGKGLEWVSGISWNSGTIGYADSVKGRFIISRDNAKNSLYLQMNSLRGEDMALYYCGKDRKREDPSLGGMDVWGQGTTVTVSS
VL: SYELTQPPSVSVAPGQTARITCGGNNIGSKSVHWYQQKPGQAPVLVVYDDTDRPSGIPERFSGSNSGNTATLTISRVEAGDEADYYCQVWDSSSDHYVFGTGTKLTVL
B7: A-11 (antibody, V domains shown)
VH: EVQLVESGAEVKKPGSSVMVSCKASGGTFSRYAISWVRQAPGQGLEWMGGIIPVFGIVHYAQKFQGRVTITADKSTSTAYMELSSLRSEDTAAYYCARDRQQQPSPYYYHGMDVWGQGTTVTVSS
VL: DIRLTQSPSSLSASVGDRVTITCQASQDISNYLNWYQQKPGKAPKLLIYDASNLETGVPTRFSGSGSGTDFTFTISSLQPEDIATYYCQQYDNLPLFGGGTKVEIK
B8: A-13 (antibody, V domains shown)
VH: QVQLVQSGAEVKKPGASVKVSCKASGYTFTDYYMHWVRQAPGQGLEWMGWINPNSGGTNSAQKFQGRVTMTRDTSINTAYMELSRLRSDDTAVYFCARDSHLAMVRGDFEYWGQGTLVTVSS
VL: QSVLTQPASVSGSPGQSITISCTGTSSDVESYNVVSWYQQHPGKAPKLMIYEVSKRPSGVSHRFSGSKSGNTASLTISGLQAEDESDYYCCSYAGNSTWVFGGGTKLTVL
B9: A-9 (antibody, V domains shown)
VH: EVQLVESGGGLVKPGRSLRLSCAASGFTFADYAMSWFRQAPGKGLEWVGFIRSKPYGGTTEYAASVKGRFTISRDDSKSIAYLQMNSLKTEDTAVYYCSRDPWYCSGGDCYAVTGSWFDPWGQGTLVTVSS
VL: DIVLTQSPSSLSASVGDRVTITCQASQDIKKYLNWYQQKPGKAPKLLIYDVSNLETGVPSRFSGSGSGTDFTFTISSLQPEDVAIYYCQQYDNLPQTFGQGTKVDIK
B10: A-6 (antibody, V domains shown)
VH: QVQLVQSGGGVVQPGRSLRLSCAASGFTFSNFAMHWVRQAPGKGLEWVAVILYDGINKYYADSVKGRFTISRGNSKNTLSLQMNSLRAEDTAVYYCARAQNYYDRSGTLQLDAFDIWGQGTMVTVSS
VL: DIVMTQSPSSLSASVGDRVTITCRASQGIRNDLGWYQQKPGKAPKLLIYAASSLQSGVPSRFSGSGSGTDFTLTISSLQPEDFATYYCLQDYNYPLTFGGGTKVEIK
B11: A-24.3 Fab (Fab, V domains shown)
VH: B9 VH with A33T, K54E
VL: B9 VL with V3Q, L4M, Q27R, N93Q, D105E, K107E
B12: A-24 Fab (Fab, V domains shown)
VH: B9 VH
VL: B9 VL with V3Q, L4M, D105E

The binders below were run against SARS-CoV-2 S Trimer (SARS-CoV-2, UniProt P0DTC2 16-1213) (assay: Octet BLI, IgG, avid).

| Binder | Kd [nM] |
| --- | --- |
| B1 | 0.865 |
| B2 | 0.987 |
| B3 | 1.14 |
| B4 | 1.69 |
| B5 | 0.854 |
| B6 | 1.15 |
| B7 | 1.29 |
| B8 | 0.843 |
| B9 | 1 |
| B10 | 1.35 |

These binders were tested against T1, SARS-CoV-2 wild type spike protein (on reporter virus particles) (SARS-CoV-2, UniProt P0DTC2 14-1273) (assay: cell-based or functional assay).

| Binder | PsV neutralization IC50 [µg/mL] | PsV neutralization IC90 [µg/mL] |
| --- | --- | --- |
| B4 | 0.303 | 1.82 |
| B6 | 0.057 | 0.399 |
| B9 | 0.011 | 0.164 |
| B10 | 0.173 | 2.03 |

Molecular target: T1, SARS-CoV-2 wild type spike protein (on …)
Assay: cell-based or functional assay
Remark: another data set of the same source

| Binder | PsV neutralization IC50 [µg/mL] | PsV neutralization IC90 [µg/mL] |
| --- | --- | --- |
| B4 | 0.076 | 1.38 |
| B10 | 0.015 | 0.085 |

Each binder was assayed against SARS-CoV-1 spike protein (SARS-CoV-1, UniProt P59594 14-1255) (assay: cell-based or functional assay).

| Binder | PsV neutralization IC50 [µg/mL] | PsV neutralization IC90 [µg/mL] |
| --- | --- | --- |
| B4 | 0.043 | 0.046 |
| B10 | 1.01 |  |

The binders below were run against Bat coronavirus WIV16 spike protein (Bat coronavirus WIV16) (assay: cell-based or functional assay).

| Binder | PsV neutralization IC50 [µg/mL] | PsV neutralization IC90 [µg/mL] |
| --- | --- | --- |
| B4 | 0.045 | 0.324 |
| B10 | 0.074 | 16.3 |

Molecular target: T1, SARS-CoV-2 wild type spike protein (on …)
Assay: cell-based or functional assay
Remark: another data set of the same source

| Binder | PSV IC50 [µg/L] |
| --- | --- |
| B1 | 17 |
| B2 | 5120 |
| B3 | 25 |
| B5 | 194 |
| B6 | 186 |
| B7 | 92 |
| B8 | 23 |
| B10 | 878 |

Molecular target: T1, SARS-CoV-2 wild type spike protein (on …)
Assay: cell-based or functional assay
Remark: another data set of the same source

| Binder | SARS2 IC50 [pM] |
| --- | --- |
| B4 | 5900 |
| B6 | 610 |
| B9 | 30 |
| B10 | 23 |

Molecular target: T1, SARS-CoV-2 wild type spike protein (on …)
Assay: cell-based or functional assay
Remark: another data set of the same source

| Binder | PsV IC50, Test 1 [nM] | PsV IC50, Test 2 [nM] |
| --- | --- | --- |
| B4 | 0.14 | 2.78 |
| B6 | 0.28 | 0.54 |
| B9 | 0.03 | 0.04 |
| B10 | 0.12 | 2.45 |

Molecular target: T1, SARS-CoV-2 wild type spike protein (on …)
Assay: cell-based or functional assay
Remark: another data set of the same source

| Binder | PsV Neut Assay IC50 [pM] |
| --- | --- |
| B1 | 116 |
| B2 | 34100 |
| B3 | 169 |
| B4 | 9880 |
| B5 | 1290 |
| B6 | 1240 |
| B7 | 613 |
| B8 | 155 |
| B9 | 208 |
| B10 | 5850 |

The binders below were run against T2, SARS-CoV-2 Spike S1-His (SARS-CoV-2, UniProt P0DTC2 16-685) (assay: Octet BLI, Fab, monovalent).

| Binder | Kd [nM] |
| --- | --- |
| B11 | 0.244 |
| B12 | 2.97 |

Each binder was assayed against T2, SARS-CoV-2 Spike S1-His (assay: Octet BLI, IgG, monovalent).

| Binder | Kd [nM] |
| --- | --- |
| B1 | 9.6 |
| B2 | 1.15 |
| B3 | 14.5 |
| B4 | 1.09 |
| B5 | 9.59 |
| B6 | 4.85 |
| B7 | 6.92 |
| B8 | 4.91 |
| B9 | 5.89 |
| B10 | 3.71 |

The binders below were run against SARS-CoV1 Spike [change] (SARS-CoV-1, UniProt P59594 14-667) (assay: Octet BLI, IgG, monovalent).

| Binder | binding result | Kd [nM] |
| --- | --- | --- |
| B1 | no binding |  |
| B2 | no binding |  |
| B3 | no binding |  |
| B4 |  | 7.43 |
| B5 | no binding |  |
| B6 | no binding |  |
| B7 | no binding |  |
| B8 | no binding |  |
| B9 | no binding |  |
| B10 |  | 17.2 |

What follows are binders tested against T3, MERS-CoV [change] (MERS-CoV, UniProt K9N5Q8 18-725) (assay: Octet BLI, IgG, monovalent).
T3 sequence: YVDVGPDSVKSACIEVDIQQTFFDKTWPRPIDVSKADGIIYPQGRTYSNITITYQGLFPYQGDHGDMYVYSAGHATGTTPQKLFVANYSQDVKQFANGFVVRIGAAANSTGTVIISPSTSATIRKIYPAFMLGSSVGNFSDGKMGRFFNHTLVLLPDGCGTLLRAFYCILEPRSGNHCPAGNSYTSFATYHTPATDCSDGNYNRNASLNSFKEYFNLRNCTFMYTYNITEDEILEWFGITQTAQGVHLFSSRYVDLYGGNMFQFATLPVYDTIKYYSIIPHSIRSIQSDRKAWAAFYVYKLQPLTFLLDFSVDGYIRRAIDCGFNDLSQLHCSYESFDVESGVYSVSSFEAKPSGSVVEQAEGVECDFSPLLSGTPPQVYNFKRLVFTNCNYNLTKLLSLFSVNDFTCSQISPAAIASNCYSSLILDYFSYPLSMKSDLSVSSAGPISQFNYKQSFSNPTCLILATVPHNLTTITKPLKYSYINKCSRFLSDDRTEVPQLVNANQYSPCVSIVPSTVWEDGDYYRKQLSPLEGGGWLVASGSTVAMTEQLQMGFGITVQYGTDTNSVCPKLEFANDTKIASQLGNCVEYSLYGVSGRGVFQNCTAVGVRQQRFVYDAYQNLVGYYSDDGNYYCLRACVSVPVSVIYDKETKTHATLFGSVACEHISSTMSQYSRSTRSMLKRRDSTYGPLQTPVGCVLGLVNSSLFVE

| Binder | binding result |
| --- | --- |
| B1 | no binding |
| B2 | no binding |
| B3 | no binding |
| B4 | no binding |
| B5 | no binding |
| B6 | no binding |
| B7 | no binding |
| B8 | no binding |
| B9 | no binding |
| B10 | no binding |

What follows are binders tested against SARS-CoV-2 WT RBD (SARS-CoV-2, UniProt P0DTC2 319-541) (assay: Octet BLI single point, monovalent).

| Binder | Kd [nM] |
| --- | --- |
| B4 | 0.527 |
| B6 | 2.09 |
| B10 | 1.18 |
